Like-named read-outs stand apart in the source and are kept apart here. Numbered stars: 1 amine (or outer) side, 2 acyl side, 3 side chain; on linkers, the order of the positions; unused ones are H or OH. Bridge positions count the residues as written; N and C are the ends. Square brackets hold non-standard residues; d marks the D form. Peptide text beside a SMILES is read from it. I, II: the chains in the order shown. * marks the point of attachment. X3 = O=C(CCCC(=O)NCCC(=O)[*:1])NCCOCCOCCN(CC(=O)[*:2])CC(=O)[*:3]; TATA = O=C(CC[*:1])N1CN(C(=O)CC[*:2])CN(C(=O)CC[*:3])C1; Dolaproine = CO[C@@H]([C@@H]1CCCN1)[C@@H](C)C(=O)O; Dil = CC[C@H](C)[C@H](NC)[C@@H](CC(=O)O)OC; X2 = O=C(CCCC(=O)[*:2])NCCC(=O)[*:1]; PABC = O=C(OCc1ccc(N[*:1])cc1)[*:2]; X1 = C[C@@H](N*)[C@@H](O)c1ccccc1; Hyp = O=C(O)[C@@H]1C[C@@H](O)CN1; hArg = N=C(N)NCCCC[C@H](N)C(=O)O; Cit = NC(=O)NCCC[C@H](N)C(=O)O; NMeV = CN[C@H](C(=O)O)C(C)C; hCys = N[C@@H](CCS)C(=O)O; Sar = CNCC(=O)O
Tests used:
PC3 cells = assay: PC3 cell proliferation inhibition assay; format: cell-based, human
Protocol: PC3 cell culture conditions: RPMI-1640+10% FBS+1% penicillin-streptomycin solution. The cells were cultured in a 37° C., 5% CO2 incubator. On the first day, the PC3 cells in the exponential growth phase were collected and plated in a 96-well cell culture plate at a density of 500 cells/well (90 μL/well). The cells were cultured overnight in a 37° C., 5% CO2 incubator. The next day, 10 μL of the compound at different concentrations was added to each well so that the final concentration of DMSO in each well was 0.1%. The mixture was cultured in a 37° C., 5% CO2 incubator for 3 days. After the completion of culture, 50 μL of detection solution (Cell Viability Assay, Promega, G7573) was added to each well. The mixture was mixed uniformly for 2 minutes and incubated at room temperature for 10 minutes. The chemiluminescence reading was detected by a microplate reader. The results were processed according to formula (1), the proliferation inhibition rate of the compound at different concentrations was calculated, and the IC50 value of the compound with an inhibition rate of 50% was calculated using origin9.2 software, wherein RLUcompound was the readout of the treated group, and RLUcontrol was the average value of the solvent control group.

[1] = tested on: PC3 cells subcutaneous transplanted tumor; assay: Mouse PC3 cells subcutaneous in vivo transplanted tumor model; set-up: species or system CB-17 SCID mice; conditions: 0.5 mg/kg intravenously, once a week, 35 days
Protocol: Human prostate cancer PC3 cells were placed in an RPMI-1640 medium (supplemented with 10% fetal bovine serum and 1% penicillin-streptomycin solution) and cultured at 37° C. Conventional digestion treatment with trypsin was carried out twice a week for passage. When the cell saturation was 80%-90%, and the number reached the requirement, the cells were collected, counted, and inoculated. Male CB-17 SCID mice (from Beijing Vital River Laboratory Animal Technology Co., Ltd.) were subcutaneously inoculated with 0.1 mL (2×10^6) of PC3 cells (plus matrigel, with the volume ratio of 1:1) on the right back. When the average tumor volume reached about 80-120 mm^3, grouping and administration were performed (marked as Day 0). For the solvent group, 50 mM of acetic acid and 10% sucrose solution (pH=5) were administered; and for the administration group, 0.5 mg/kg of compound 2, compound 4 or compound 13 was intravenously administered. The administration frequency was once a week and the administration cycle was 35 days (Day 0-Day 34). After grouping, the tumor diameter was measured twice a week with a vernier caliper. The formula for calculating the tumor volume was: V=0.5×a×b^2, where a and b represented the long and short diameters of the tumor, respectively. The tumor inhibitory effect of the compound was evaluated by TGI (%)= [1−(average tumor volume at the end of administration in the treatment group-average tumor volume at the beginning of administration in the treatment group)/(average tumor volume at the end of treatment in the solvent control group-average tumor volume at the beginning of treatment in the solvent control group)]×100%. The tumor growth curve and the animal body weight change curve were as shown in FIG. 1 and FIG. 2, respectively.

[2] = Pharmacokinetic test in rats; set-up: species or system SD rats; conditions: in vivo, iv, rat plasma, i.v. 1 mg/kg, analyte PDC
Protocol: 3.1 Experimental animals: male SD rats, about 220 g, 6-8 weeks old, 3 rats/compound. Purchased from Chengdu Ddossy Experimental Animals Co., Ltd.
3.2 Experimental design: on the day of the test, 3 SD rats were randomly grouped according to their body weights. The animals were fasted with water available for 12 to 14 h one day before the administration, and were fed 4 h after the administration.
Before and after the administration, 0.15 m1 of blood was taken from the orbit of the animals under isoflurane anesthesia and placed in an EDTAK2 centrifuge tube. The blood was centrifuged at 5000 rpm and 4° C. for 10 min to collect plasma. The blood collection time points for the intravenous administration group and intragastric administration group were: 0, 5 min, 15 min, 30 min, 1 h, 2 h, 4 h, 6 h, 8 h and 24 h. Before analysis and detection, all samples were stored at −80° C., and a quantitative analysis of samples was performed using LC-MS/MS.

[3] = Pharmacokinetic test in monkeys; conditions: cynomolgus monkey, in vivo, iv, monkey plasma; for AUC(0-t) / Cmax / half-life: 1 mg/kg
Protocol: 4.1 Experimental animals: male cynomolgus monkeys, 3-5 kg, 3-6 years old, 3 monkeys/compound. Purchased from Suzhou Xishan Biotechnology Inc.
4.2 Experimental method: on the day of the test, 3 monkeys were randomly grouped according to their body weights. The animals were fasted with water available for 14 to 18 h one day before the administration, and were fed 4 h after the administration.
Solvent for intravenous administration: 5% DMA+95% (20% SBE-CD).
Before and after the administration, 1.0 mL of blood samples were drawn from the limb veins and placed in an EDTAK2 centrifuge tube. Centrifugation was carried out at 5000 rpm at 4° C. for 10 min, and the plasma was collected. The blood collection time points for the intravenous administration group were: 0, 2 min, 5 min, 15 min, 30 min, 1 h, 2 h, 4 h, 6 h, 8 h, and 24 h. Before analysis and detection, all samples were stored at −80° C., and a quantitative analysis of samples was performed using LC-MS/MS.

MOLP8 cells = assay: MOLP8 cell proliferation inhibition assay; format: cell-based, human; conditions: MOLP8 cells (EphA2 negative cell), incubated 5 days
Protocol: Human multiple myeloma MOLP8 cells purchased from DSMZ were placed in complete RPMI-1640 medium (supplemented with 20% fetal bovine serum) and cultured at 37° C. and 5% CO2. The cells in the exponential growth phase were collected, and the cell suspension was adjusted to 8000 cells/135 μL with the culture medium. 135 μl of the cell suspension was added to each well of a 96-well cell culture plate and incubated overnight. The next day, compounds at different concentrations were added, and the plate was placed in the incubator and incubated for 5 days. After the completion of culture, according to operation instructions for a CellTiter-Glo kit (Promega, Cat #G7573), 75 μL of CTG solution, which was already pre-melted and equilibrated to room temperature, was added to each well, and the mixture was uniformly mixed for 2 minutes using a microplate shaker. The plate was placed at room temperature for 10 minutes, and then […] signal values were measured using an Envision 2104 plate reader (PerkinElmer). The cell proliferation inhibition rate was calculated according to the formula [(1−(RLUcompound−RLUblank)/(RLUcontrol−RLUblank))×100%]. The IC50 value was obtained by four-parameter nonlinear fitting using GraphPad Prism software.

[4] = i.v. 1 mg/kg of compound 4, analyte MMAE

CC[C@H](C)[C@@H]([C@@H](CC(=O)N1CCC[C@H]1[C@H](OC)[C@@H](C)C(=O)N[C@H](C)[C@@H](O)c1ccccc1)OC)N(C)C(=O)[C@@H](NC(=O)[C@H](C(C)C)N(C)C(=O)OCc1ccc(NC(=O)[C@H](CCCNC(N)=O)NC(=O)[C@@H](NC(=O)CCCC(=O)NCCC(=O)N(C)CC(=O)N(C)CC(=O)N(C)CC(=O)N(C)CC(=O)N(C)CC(=O)N(C)CC(=O)N(C)CC(=O)N(C)CC(=O)N(C)CC(=O)N(C)CC(=O)N[C@@H](C)C(=O)N[C@@H](CCCCNC(=N)N)C(=O)N[C@@H](CC(=O)O)C(=O)N[C@H]2CSCCC(=O)N3CN4CN(C3)C(=O)CCSC[C@H](NC(=O)[C@H](CC(C)C)NC(=O)[C@@H]3CCCN3C(=O)[C@H](CC(N)=O)NC(=O)[C@H](C(C)C)NC(=O)[C@H](CC(C)C)NC(=O)[C@@H]3C[C@@H](O)CN3C2=O)C(=O)N[C@@H](CC(C)C)C(=O)N[C@@H](Cc2c[nH]cn2)C(=O)N2CCC[C@H]2C(=O)N[C@H](CC(=O)O)C(=O)N[C@@H](Cc2c[nH]c3ccccc23)C(=O)N[C@@H](CCCCNC(=N)N)C(=O)N[C@H](C(N)=O)CCSCCC4=O)C(C)C)cc1)C(C)C [Compound 2] (I: [Sar][Sar][Sar][Sar][Sar][Sar][Sar][Sar][Sar][Sar]A[hArg]DC[Hyp]LVNPLCLHP[dD]W[hArg][hCys]-NH2 / II: V[Cit][PABC][NMeV]V[Dil][Dolaproine]-X1; linker I:14-I:21-I:28 via TATA; linker I:N-II:N via X2)
IC50 (PC3 cells; read-out: IC50 value): 3.1 nM | tolerability [1]: well tolerated

I: [Sar][Sar][Sar][Sar][Sar][Sar][Sar][Sar][Sar][Sar]A[hArg]D[hCys][Hyp]LVNPLCLHP[dD]W[hArg]C-NH2 / II: V[Cit][PABC][NMeV]V[Dil][Dolaproine]-X1 / III: V[Cit][PABC][NMeV]V[Dil][Dolaproine]-X1 (linker I:14-I:21-I:28 via TATA; linker I:N-II:N-III:N via X3) [Compound 17]
Max inh. % 10 μM (PC3 cells; 10 μM): 69.4% | IC50 (PC3 cells; cultured 3 days with compound, read-out: IC50): ≤ 10 nM | IC50 (PC3 cells; read-out: IC50 value): 1 nM

CC[C@H](C)[C@@H]([C@@H](CC(=O)N1CCC[C@H]1[C@H](OC)[C@@H](C)C(=O)N[C@H](C)[C@@H](O)c1ccccc1)OC)N(C)C(=O)[C@@H](NC(=O)[C@H](C(C)C)N(C)C(=O)OCc1ccc(NC(=O)[C@H](CCCNC(N)=O)NC(=O)[C@@H](NC(=O)CCCC(=O)NCCC(=O)N(C)CC(=O)N(C)CC(=O)N(C)CC(=O)N(C)CC(=O)N(C)CC(=O)N(C)CC(=O)N(C)CC(=O)N(C)CC(=O)N(C)CC(=O)N(C)CC(=O)N[C@@H](C)C(=O)N[C@@H](CCCCNC(=N)N)C(=O)N[C@@H](CC(=O)O)C(=O)N[C@H]2CCSCCC(=O)N3CN4CN(C3)C(=O)CCSC[C@H](NC(=O)[C@H](CC(C)C)NC(=O)[C@@H]3CCCN3C(=O)[C@H](CC(N)=O)NC(=O)[C@H](C(C)C)NC(=O)[C@H](CC(C)C)NC(=O)[C@@H]3C[C@@H](O)CN3C2=O)C(=O)N[C@@H](CC(C)C)C(=O)N[C@@H](Cc2c[nH]cn2)C(=O)N2CCC[C@H]2C(=O)N[C@H](CC(=O)O)C(=O)N[C@@H](Cc2c[nH]c3ccccc23)C(=O)N[C@@H](CCCCNC(=N)N)C(=O)N[C@H](C(N)=O)CCSCCC4=O)C(C)C)cc1)C(C)C [Compound 13] (I: [Sar][Sar][Sar][Sar][Sar][Sar][Sar][Sar][Sar][Sar]A[hArg]D[hCys][Hyp]LVNPLCLHP[dD]W[hArg][hCys]-NH2 / II: V[Cit][PABC][NMeV]V[Dil][Dolaproine]-X1; linker I:14-I:21-I:28 via TATA; linker I:N-II:N via X2)
tolerability [1]: well tolerated

CC[C@H](C)[C@@H]([C@@H](CC(=O)N1CCC[C@H]1[C@H](OC)[C@@H](C)C(=O)N[C@H](C)[C@@H](O)c1ccccc1)OC)N(C)C(=O)[C@@H](NC(=O)[C@H](C(C)C)N(C)C(=O)OCc1ccc(NC(=O)[C@H](CCCNC(N)=O)NC(=O)[C@@H](NC(=O)CCCC(=O)NCCC(=O)N(C)CC(=O)N(C)CC(=O)N(C)CC(=O)N(C)CC(=O)N(C)CC(=O)N(C)CC(=O)N(C)CC(=O)N(C)CC(=O)N(C)CC(=O)N(C)CC(=O)N[C@@H](C)C(=O)N[C@@H](CCCCNC(=N)N)C(=O)N[C@@H](CC(=O)O)C(=O)N[C@H]2CCSCCC(=O)N3CN4CN(C3)C(=O)CCSC[C@H](NC(=O)[C@H](CC(C)C)NC(=O)[C@@H]3CCCN3C(=O)[C@H](CC(N)=O)NC(=O)[C@H](C(C)C)NC(=O)[C@H](CC(C)C)NC(=O)[C@@H]3C[C@@H](O)CN3C2=O)C(=O)N[C@@H](CC(C)C)C(=O)N[C@@H](Cc2c[nH]cn2)C(=O)N2CCC[C@H]2C(=O)N[C@H](CC(=O)O)C(=O)N[C@@H](Cc2c[nH]c3ccccc23)C(=O)N[C@@H](CCCCNC(=N)N)C(=O)N[C@H](C(N)=O)CSCCC4=O)C(C)C)cc1)C(C)C [Compound 4] (I: [Sar][Sar][Sar][Sar][Sar][Sar][Sar][Sar][Sar][Sar]A[hArg]D[hCys][Hyp]LVNPLCLHP[dD]W[hArg]C-NH2 / II: V[Cit][PABC][NMeV]V[Dil][Dolaproine]-X1; linker I:14-I:21-I:28 via TATA; linker I:N-II:N via X2)
AUC(0-t) [2]: 1470 ng·h/mL | Cmax [2]: 6530 ng/mL | clearance [2]: 11 mL/min/kg | half-life [2]: 16.3 min | Vd ([2]; read-out: Vdss): 0.233 L/kg | AUC(0-t) [3, 4]: 20.8 ng·h/mL | Cmax [3, 4]: 3.71 ng/mL | half-life [3, 4]: 1460 min | AUC(0-t) ([3]; i.v. 1 mg/kg, analyte PDC): 3030 ng·h/mL | Cmax ([3]; i.v. 1 mg/kg, analyte PDC): 7630 ng/mL | half-life ([3]; i.v. 1 mg/kg, analyte PDC): 38.6 min | clearance ([3]; i.v. 1 mg/kg, analyte PDC): 5.57 mL/min/kg | Vd ([3]; i.v. 1 mg/kg, analyte PDC, read-out: Vdss): 0.179 L/kg | IC50 (MOLP8 cells): 144 nM | IC50 (PC3 cells; read-out: IC50 value): 2.9 nM | tolerability [1]: well tolerated
